Assay results taken from patent publication US20220144960A1 (NANJING LEGEND BIOTECH, published 2022).

Legend:
[1] = molecular target: T1, CD30 on CD30-expressing tumor cell lines (HH, MJ, H9) (UniProt P28908 19-595); experiment: cell-based or functional assay
T1 sequence (looked up): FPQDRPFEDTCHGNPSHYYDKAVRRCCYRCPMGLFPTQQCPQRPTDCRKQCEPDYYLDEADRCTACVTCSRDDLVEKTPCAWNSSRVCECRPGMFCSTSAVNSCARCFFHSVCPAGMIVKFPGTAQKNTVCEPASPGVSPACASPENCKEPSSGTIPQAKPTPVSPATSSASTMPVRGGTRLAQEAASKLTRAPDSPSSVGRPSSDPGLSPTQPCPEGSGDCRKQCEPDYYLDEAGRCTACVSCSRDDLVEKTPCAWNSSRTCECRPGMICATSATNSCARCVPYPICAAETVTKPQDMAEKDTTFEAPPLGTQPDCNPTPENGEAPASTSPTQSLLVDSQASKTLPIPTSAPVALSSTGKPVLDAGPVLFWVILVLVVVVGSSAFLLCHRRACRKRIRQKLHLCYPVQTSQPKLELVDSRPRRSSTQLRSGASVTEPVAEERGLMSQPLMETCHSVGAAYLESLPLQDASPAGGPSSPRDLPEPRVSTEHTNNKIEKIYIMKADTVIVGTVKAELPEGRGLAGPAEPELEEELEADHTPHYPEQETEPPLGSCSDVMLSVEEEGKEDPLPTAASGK

[2] = molecular target: T1, CD30 on CD30-expressing tumor cell …; experiment: cell-based or functional assay; remark: listed apart in the source
rhesus CD30 ECD = molecular target: T2, rhesus CD30 ECD (rhesus, UniProt P28908 19-379 (human entry)); experiment: ELISA on rhesus CD30 ECD protein; member of the group by paragraph 437
T2 construct: Produced in house; also called recombinant rhesus CD30; rhesus CD30 protein
T2 chain: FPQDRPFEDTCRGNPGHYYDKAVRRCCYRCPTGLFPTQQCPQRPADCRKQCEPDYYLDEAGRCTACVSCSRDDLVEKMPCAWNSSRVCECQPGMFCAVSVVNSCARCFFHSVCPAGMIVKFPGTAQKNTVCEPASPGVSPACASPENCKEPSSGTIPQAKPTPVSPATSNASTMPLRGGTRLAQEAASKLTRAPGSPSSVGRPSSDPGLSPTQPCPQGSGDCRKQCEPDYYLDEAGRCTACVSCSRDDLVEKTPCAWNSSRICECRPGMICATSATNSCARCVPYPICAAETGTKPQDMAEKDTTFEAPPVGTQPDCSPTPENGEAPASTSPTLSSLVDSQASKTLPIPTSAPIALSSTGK

[3] = molecular target: T3, recombinant human CD30 extra cellular domain (ECD) protein (human, UniProt P28908 19-379); experiment: SPR Biacore T200, His-tagged sdAb/Fab captured, 100.0 nM human CD30 as analyte, single curve
T3 construct: Bought from R&D systems; also called rhCD30; human CD30 ECD
T3 sequence: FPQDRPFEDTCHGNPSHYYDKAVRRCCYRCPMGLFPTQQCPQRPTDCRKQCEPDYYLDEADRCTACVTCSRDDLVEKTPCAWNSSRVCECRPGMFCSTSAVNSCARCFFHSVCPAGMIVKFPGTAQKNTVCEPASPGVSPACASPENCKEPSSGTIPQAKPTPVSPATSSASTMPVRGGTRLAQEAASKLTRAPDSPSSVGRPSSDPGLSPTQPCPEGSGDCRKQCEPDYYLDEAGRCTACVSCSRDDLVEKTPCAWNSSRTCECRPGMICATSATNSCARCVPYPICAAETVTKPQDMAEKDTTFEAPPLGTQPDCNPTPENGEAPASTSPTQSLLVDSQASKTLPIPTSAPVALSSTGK
Experimental: Some of these unique binders were subjected to for further characterization by surface plasmon resonance (SPR) on a BIAcore T200 instrument (GE Healthcare). The experiment was carried out as follows. The crude sdAb/Fab proteins were captured through an affinity tag (6×Histidine tag) onto the sensorchip. High-concentration (100.0 nM) of human CD30 (R&D systems, Cat. #6126-CD) flowed over the sensorchip surface, and were allowed to bind the antibody fragments for 300 s followed by injection of the running buffer to allow dissociation of the complex. On-rate ([…] and off-rate (kd) were roughly calculated based on one association and dissociation curve, and were used to estimate the equilibrium dissociation constant (KD). 5F11 scFv (SEQ ID NO:216, prepared according to WO2017066122) was used as a positive control. Data were summarized in Table 3 below. The first 10 antibodies in Table 3 were sdAbs with amino acid sequence ID numbers summarized in Table 1, the last antibody was 5F11 scFv, and the remainings were human Fabs with CDR and scFv amino acid sequence ID numbers in Table 2.

| Binder | % H9 cell lysis E:T = 2:1 (LDH assay, CAR T cells) [1] | % MJ cell lysis E:T = 1:1 (LDH assay, CAR T cells) [1] | % H9 cell lysis E:T = 0.2:1 (FACS method, CAR T cells) [2] | % MJ cell lysis E:T = 0.2:1 (FACS method, CAR T cells) [2] | binding result (rhesus CD30 ECD) | Kd [3] | koff [3] | kon [3] | rhCD30 Binding (RU) [3] |
| --- | --- | --- | --- | --- | --- | --- | --- | --- | --- |
| AS53574VH7-AS48542VH5bil-bbz CAR (other) EVQLVESGGGLVQPGGSLRLSCAASGYIYSSNCMGWFRQAPGKGREWVARIHTGSGSTYYADSVKGRFTISQDNSKNTLYLQMNSLRAEDTAVYDCAAGRVVLGAVVCTNEYWGQGTLVTVSSGGGGSGGGGSGGGGSEVQLVESGGGLVQPGGSLRLSCATSAFTFDGPDMAWYRQAPGKGCELVSIISADGRTYYADSVKGRFTISRDNSKNTVYLQMNSLRAEDTAVYYCALDPRKNCRGGYCCANWGQGTLVTVSSTTTPAPRPPTPAPTIASQPLSLRPEACRPAAGGAVHTRGLDFACDIYIWAPLAGTCGVLLLSLVITLYCKRGRKKLLYIFKQPFMRPVQTTQEEDGCSCRFPEEEEGGCELRVKFSRSADAPAYKQGQNQLYNELNLGRREEYDVLDKRRGRDPEMGGKPRRKNPQEGLYNELQKDKMAEAYSEIGMKGERRRGKGHDGLYQGLSTATKDTYDALHMQALPPR | 84% | 76% | 29.8% | 50.5% |  |  |  |  |  |
| AS53574VH7-AS48463VH4bil-bbz CAR (other) EVQLVESGGGLVQPGGSLRLSCAASGYIYSSNCMGWFRQAPGKGREWVARIHTGSGSTYYADSVKGRFTISQDNSKNTLYLQMNSLRAEDTAVYDCAAGRVVLGAVVCTNEYWGQGTLVTVSSGGGGSGGGGSGGGGSEVQLLESGGGLVQPGGSLRLSCAASGFTFANSDMGWYRQAPGKGCELVSIISSHGGTTYYVDSVKGRFTISRDNSKNTLYLQMNSLRAEDTAVYYCVADPRSNCRGGYCCGYWGQGTLVTVSSTTTPAPRPPTPAPTIASQPLSLRPEACRPAAGGAVHTRGLDFACDIYIWAPLAGTCGVLLLSLVITLYCKRGRKKLLYIFKQPFMRPVQTTQEEDGCSCRFPEEEEGGCELRVKFSRSADAPAYKQGQNQLYNELNLGRREEYDVLDKRRGRDPEMGGKPRRKNPQEGLYNELQKDKMAEAYSEIGMKGERRRGKGHDGLYQGLSTATKDTYDALHMQALPPR | 78% | 59% | 38.3% | 40.7% |  |  |  |  |  |
| AS48542VH5dil-bbz CAR (other) EVQLVESGGGLVQPGGSLRLSCATSAFTFDGPDMAWYRQAPGKGCELVSIISADGRTYYADSVKGRFTISRDNSKNTVYLQMNSLRAEDTAVYYCALDPRKNCRGGYCCANWGQGTLVTVSSGGGGSGGGGSGGGGSEVQLVESGGGLVQPGGSLRLSCATSAFTFDGPDMAWYRQAPGKGCELVSIISADGRTYYADSVKGRFTISRDNSKNTVYLQMNSLRAEDTAVYYCALDPRKNCRGGYCCANWGQGTLVTVSSTTTPAPRPPTPAPTIASQPLSLRPEACRPAAGGAVHTRGLDFACDIYIWAPLAGTCGVLLLSLVITLYCKRGRKKLLYIFKQPFMRPVQTTQEEDGCSCRFPEEEEGGCELRVKFSRSADAPAYKQGQNQLYNELNLGRREEYDVLDKRRGRDPEMGGKPRRKNPQEGLYNELQKDKMAEAYSEIGMKGERRRGKGHDGLYQGLSTATKDTYDALHMQALPPR | 66% | 64% | 40.4% | 63.4% |  |  |  |  |  |
| AS48463VH4dil-bbz CAR (other) EVQLLESGGGLVQPGGSLRLSCAASGFTFANSDMGWYRQAPGKGCELVSIISSHGGTTYYVDSVKGRFTISRDNSKNTLYLQMNSLRAEDTAVYYCVADPRSNCRGGYCCGYWGQGTLVTVSSGGGGSGGGGSGGGGSEVQLLESGGGLVQPGGSLRLSCAASGFTFANSDMGWYRQAPGKGCELVSIISSHGGTTYYVDSVKGRFTISRDNSKNTLYLQMNSLRAEDTAVYYCVADPRSNCRGGYCCGYWGQGTLVTVSSTTTPAPRPPTPAPTIASQPLSLRPEACRPAAGGAVHTRGLDFACDIYIWAPLAGTCGVLLLSLVITLYCKRGRKKLLYIFKQPFMRPVQTTQEEDGCSCRFPEEEEGGCELRVKFSRSADAPAYKQGQNQLYNELNLGRREEYDVLDKRRGRDPEMGGKPRRKNPQEGLYNELQKDKMAEAYSEIGMKGERRRGKGHDGLYQGLSTATKDTYDALHMQALPPR | 63% | 53% | 30.8% | 26.3% |  |  |  |  |  |
| AS47863VH4dil-bbz CAR (other) EVQLVESGGGLVQPGGSLRLSCAASGSTFGDSDMGWYRQAPGKGCELVSIISSDGRTYYVDSVKGRFTISQDNSKNTLYLQMNSLRAEDTAVYYCAADLRQYCRDGRCCGYWGQGTLVTVSSGGGGSGGGGSGGGGSEVQLVESGGGLVQPGGSLRLSCAASGSTFGDSDMGWYRQAPGKGCELVSIISSDGRTYYVDSVKGRFTISQDNSKNTLYLQMNSLRAEDTAVYYCAADLRQYCRDGRCCGYWGQGTLVTVSSTTTPAPRPPTPAPTIASQPLSLRPEACRPAAGGAVHTRGLDFACDIYIWAPLAGTCGVLLLSLVITLYCKRGRKKLLYIFKQPFMRPVQTTQEEDGCSCRFPEEEEGGCELRVKFSRSADAPAYKQGQNQLYNELNLGRREEYDVLDKRRGRDPEMGGKPRRKNPQEGLYNELQKDKMAEAYSEIGMKGERRRGKGHDGLYQGLSTATKDTYDALHMQALPPR | 64% | 50% | 44.2% | 30.4% |  |  |  |  |  |
| AS48481 sdAb (VHH, Camel sdAb) VHH: EVQLVASGGGSVQAGETLRLSCTASGFTFADSAMGWYRKGPGNVCDLVAIIRTDGTTYYGDSAKGRFTISRDNAKSTLYLQMNSLKPEDTAVYFCAADRETSFIGGSWCVAKYWDQGTQVTVSS |  |  |  |  | binds | 95 nM | 0.0081 s⁻¹ | 86000 M⁻¹ s⁻¹ | 26.3 RU |
| AS53574VH7-AS47863VH4bil-bbz CAR (other) EVQLVESGGGLVQPGGSLRLSCAASGYIYSSNCMGWFRQAPGKGREWVARIHTGSGSTYYADSVKGRFTISQDNSKNTLYLQMNSLRAEDTAVYDCAAGRVVLGAVVCTNEYWGQGTLVTVSSGGGGSGGGGSGGGGSEVQLVESGGGLVQPGGSLRLSCAASGSTFGDSDMGWYRQAPGKGCELVSIISSDGRTYYVDSVKGRFTISQDNSKNTLYLQMNSLRAEDTAVYYCAADLRQYCRDGRCCGYWGQGTLVTVSSTTTPAPRPPTPAPTIASQPLSLRPEACRPAAGGAVHTRGLDFACDIYIWAPLAGTCGVLLLSLVITLYCKRGRKKLLYIFKQPFMRPVQTTQEEDGCSCRFPEEEEGGCELRVKFSRSADAPAYKQGQNQLYNELNLGRREEYDVLDKRRGRDPEMGGKPRRKNPQEGLYNELQKDKMAEAYSEIGMKGERRRGKGHDGLYQGLSTATKDTYDALHMQALPPR | 72% | 56% | 41.6% | 71.3% |  |  |  |  |  |
